This experiment has as its target Sodium-bicarbonate co-transporter NBCn1 (SLC4A7), native in human cells (human (endogenous in MCF-7 and HEK293T)) (UniProt Q9Y6M7). The experiment can be described thus: proximity ligation.

This is an account of results in publication doi:10.1101/2022.10.05.510992.

Chain of UniProt Q9Y6M7 (Q9Y6M7 whole entry): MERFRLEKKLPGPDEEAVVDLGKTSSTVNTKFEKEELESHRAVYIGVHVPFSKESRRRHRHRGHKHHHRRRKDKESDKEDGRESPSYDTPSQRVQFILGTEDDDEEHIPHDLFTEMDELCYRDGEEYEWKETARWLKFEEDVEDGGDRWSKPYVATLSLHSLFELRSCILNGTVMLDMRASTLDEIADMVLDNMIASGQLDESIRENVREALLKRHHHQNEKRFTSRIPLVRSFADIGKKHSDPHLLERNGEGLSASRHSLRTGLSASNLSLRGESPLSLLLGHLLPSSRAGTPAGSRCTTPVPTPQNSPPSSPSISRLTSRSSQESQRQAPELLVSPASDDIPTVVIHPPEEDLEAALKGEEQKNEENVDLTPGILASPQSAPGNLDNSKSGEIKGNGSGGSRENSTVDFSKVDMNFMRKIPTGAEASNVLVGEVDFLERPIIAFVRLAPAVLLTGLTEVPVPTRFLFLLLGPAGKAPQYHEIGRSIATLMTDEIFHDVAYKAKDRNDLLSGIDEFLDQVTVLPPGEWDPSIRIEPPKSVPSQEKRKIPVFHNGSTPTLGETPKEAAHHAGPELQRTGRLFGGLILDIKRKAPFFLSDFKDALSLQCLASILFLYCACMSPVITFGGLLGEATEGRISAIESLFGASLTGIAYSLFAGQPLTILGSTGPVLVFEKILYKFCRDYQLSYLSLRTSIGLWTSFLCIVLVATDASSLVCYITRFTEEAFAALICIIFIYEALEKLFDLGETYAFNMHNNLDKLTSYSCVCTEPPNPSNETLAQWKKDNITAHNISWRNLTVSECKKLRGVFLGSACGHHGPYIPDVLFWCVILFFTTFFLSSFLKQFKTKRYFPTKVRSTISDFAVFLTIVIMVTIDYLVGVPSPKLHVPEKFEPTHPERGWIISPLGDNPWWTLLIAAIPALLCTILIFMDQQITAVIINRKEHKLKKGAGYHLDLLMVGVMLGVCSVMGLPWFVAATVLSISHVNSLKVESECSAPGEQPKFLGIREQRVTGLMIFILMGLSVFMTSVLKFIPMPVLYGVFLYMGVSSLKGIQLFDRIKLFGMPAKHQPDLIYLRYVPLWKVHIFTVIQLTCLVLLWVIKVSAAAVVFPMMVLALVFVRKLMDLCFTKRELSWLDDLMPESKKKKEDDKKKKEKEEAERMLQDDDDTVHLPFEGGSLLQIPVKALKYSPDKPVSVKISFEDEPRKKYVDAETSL

Take “E-cadherin, native in MCF-7 cells (natural protein)”: the PLA signal, fold over the NBCn1-NHE1 control was 4 fold and the PLA signal, fold over the negative control (only NBCn1 antibody) came out at 11 fold.
